The target in this data set is T1, Ala-Ala-Tyr-Ala-Ala.
T1 chain: AAYAA

B1: Parvulin (protein)
chain: AKTAAALHILVKEEKLALDLLEQIKNGADFGKLAKKHSICPSGKRGGDLGEFRQGQMVPAFDKVVFSCPVLEPTGPLHTQFGYHIIKVLYRN
In the case of B1, the relative intensity of the cross signal of the Ala-Tyr peptide bond (no addition: 3.50 ± 0.51) (relative intensity) is 2.9 and the relative intensity of the cross signal of the Tyr-Ala peptide bond (no addition: 3.89 ± 0.32) (relative intensity) stood at 3.11.

B2: fragment of the trigger factor (protein)
chain: RKQQATWKEKDGAVEAEDRVTIDFTGSVDGEEFEGGKASDFVLAMGQGRMIPGFEDGIKGHKAGEEFTIDVTFPEEYHAENLKGKAAKFAINLKKVEERELPELTAE
On to B2, for which the relative intensity of the cross signal of the Ala-Tyr peptide bond (no addition: 3.50 ± 0.51) (relative intensity) came to 3.96 and the relative intensity of the cross signal of the Tyr-Ala peptide bond (no addition: 3.89 ± 0.32) (relative intensity) worked out at 3.22.

B3: trigger factor (TF) (protein)
chain: MQVSVETTQGLGRRVTITIAADSIETAVKSELVNVAKKVRIDGFRKGKVPMNIVAQRYGASVRQDVLGDLMSRNFIDAIIKEKINPAGAPTYVPGEYKLGEDFTYSVEFEVYPEVELQGLEAIEVEKPIVEVTDADVDGMLDTLRKQQATWKEKDGAVEAEDRVTIDFTGSVDGEEFEGGKASDFVLAMGQGRMIPGFEDGIKGHKAGEEFTIDVTFPEEYHAENLKGKAAKFAINLKKVEERELPELTAEFIKRFGVEDGSVEGLRAEVRKNMERELKSAIRNRVKSQAIEGLVKANDIDVPAALIDSEIDVLRRQAAQRFGGNEKQALELPRELFEEQAKRRVVVGLLLGEVIRTNELKADEERVKGLIEEMASAYEDPKEVIEFYSKNKELMDNMRNVALEEQAVEAVLAKAKVTEKETTFNELMNQQA
Take B3: the relative intensity of the cross signal of the Ala-Tyr peptide bond (no addition: 3.50 ± 0.51) (relative intensity) was 3.83 and the relative intensity of the cross signal of the Tyr-Ala peptide bond (no addition: 3.89 ± 0.32) (relative intensity) was 4.42.

(Values after patent US7589065.)
